Laboratory results as given in patent US20150284450A1, “COMBINATION THERAPIES USING ANTI-PSEUDOMONAS PSL AND PCRV BINDING MOLECULES” (priority 2012, published 2015).
Changes are numbered by the printed parent chain. Names may count otherwise.

Experiments:
[1] = test system: P. aeruginosa 6077 (O11-cytotoxic); assay: Corneal infection (keratitis) model in mice, strain 6077; format: in vivo, Pseudomonas aeruginosa; conditions: C3H/HeN mice, IP dosing 16 hours prior to 6077 (1×10^6 CFU), FIG. 8H
Protocol: (§1) Antibodies or PBS were administered 24 hours before infection in each model. P. aeruginosa acute pneumonia, keratitis, and thermal injury infection models were performed as described (DiGiandomenico, A., et al., Proc Natl Acad Sci USA 104, 4624-4629 (2007)), with modifications. In the acute pneumonia model, BALB/c mice (The Jackson Laboratory) were infected with P. aeruginosa strains suspended in a 0.05 ml inoculum. In the thermal injury model, CF-1 mice (Charles River) received a 10% total body surface area burn with a metal brand heated to 92° C. for 10 seconds. Animals were infected subcutaneously with P. aeruginosa strain 6077 at the indicated dose. For organ burden experiments, acute pneumonia was induced in mice followed by harvesting of lungs, spleens, and kidneys 24 hours post-infection for determination of CFU.
Cam-003 and WapR-004 efficacy was next evaluated in a P. aeruginosa corneal infection model which emphasizes the pathogens ability to attach and colonize damaged tissue. […] FIG. 8 (H): The activity of anti-Psl and anti-PcrV monoclonal antibodies V2L2 was tested in a P. aeruginosa mouse ocular keratitis model. C3H/HeN mice were injected intraperitoneally (IP) with PBS or a control IgG1 antibody (R347) at 45 mg/kg or WapR-004 (α-Psl) at 5 mg/kg or V2L2 (α-PcrV) at 5 mg/kg, 16 hours prior to infection with 6077 (O11-cytotoxic−1×10^6 CFU) Immediately before infection, mice were anesthetized followed by initiation of three 1 mm scratches on the cornea and superficial stroma of one eye of each mouse using a 27-gauge needle under a dissection microscope, followed by topical application of P. aeruginosa 6077 strain in a 5 μl inoculum. Eyes were photographed at 48 hours post infection followed by corneal grading by visualization of eyes under a dissection microscope. Grading of corneal infection was performed as previously described by Preston et al. (Preston, M J., 1995, Infect. Immun. 63:3497). Briefly, infected eyes were graded 48 h after infection with strain 6077 by an investigator who was unaware of the animal treatments. The following grading scheme was used: grade 0, eye macroscopically identical to an uninfected eye; grade 1, faint opacity partially covering the pupil; grade 2, dense opacity covering the pupil; grade 3, dense opacity covering the entire pupil; grade 4, perforation of the cornea (shrinkage of the eyeball).

P. aeruginosa 6294 (O6) = assay: Acute pneumonia model in mice, strain 6294; format: in vivo, Pseudomonas aeruginosa
Protocol: as §1

[2] = test system: P. aeruginosa 6206 (O11-ExoU+); assay: Acute pneumonia model in mice, strain 6206; format: in vivo, Pseudomonas aeruginosa; conditions: 6206; W4-RAD 0.2 mg/kg; monitored 120 hours; FIG. 21A
Protocol: as §1

[3] = test system: P. aeruginosa serogroup 05 strain (PAO1.lux); assay: Opsonophagocytic killing (OPK) assay with luminescent PAO1.lux, HL-60 cells and baby rabbit serum; format: cell-based, Pseudomonas aeruginosa; conditions: FIG. 10C, 11N-Q
Protocol: This example describes the evaluation of prioritized human IgG1 antibodies to promote OPK of P. aeruginosa. […] OPK assays were performed as described in (DiGiandomenico, A., et al., Infect Immun 72, 7012-7021 (2004)), with modifications. Briefly, assays were performed in 96-well plates using 0.025 ml of each OPK component; P. aeruginosa strains; diluted baby rabbit serum; differentiated HL-60 cells; and monoclonal antibody. In some OPK assays, luminescent P. aeruginosa strains, which were constructed as described (Choi, K. H., et al., Nat Methods 2, 443-448 (2005))., were used. Luminescent OPK assays were performed as described above but with determination of relative luciferase units (RLUs) using a Perkin Elmer ENVISION Multilabel plate reader (Perkin Elmer).

[4] = test system: P. aeruginosa 6077 (exoU+); assay: Rabbit red blood cell lysis inhibition assay with strain 6077; format: cell-based, Pseudomonas aeruginosa; conditions: strain 6077; FIG. 12D-E
Protocol: Percent inhibition of cytotoxicity analysis was analysed for the parental V2L2 mAb, mAb166 (positive control) and R347 (negative control), where the antibodies were administered to cultured broncho-epithelial cell line A549 combined with log-phase P. aeruginosa strain 6077 (exoU+) at a MOI of approximately 10. A549 lysis was assayed by measuring released lactate dehydrogenase (LDH) activity and lysis in the presence of mAbs was compared to wells without mAb to determine percent inhibition. The V2L2 mAb, mAb166 (positive control) and R347 (negative control) were evaluated for their ability to prevent lysis of RBCs, where the antibodies were mixed with log-phase P. aeruginosa 6077 (exoU^+) and washed rabbit red blood cells (RBCs) and incubated for 2 hours at 37°. Intact RBCs were pelleted and the extent of lysis determined by measuring the OD405 of the cell-free supernatant. Lysis in the presence of anti-PcrV mAbs was compared to wells without mAb to determine percent inhibition.

B1: WapR-004RAD: identical to WapR-004 except for substitution G98A of the VH; VH SEQ ID NO: 74, VL SEQ ID NO: 12 (antibody, V domains shown)
VH: EVQLLESGPGLVKPSETLSLTCNVAGGSISPYYWTWIRQPPGKGLELIGYIHSSGYTDYNPSLKSRVTISGDTSKKQFSLHVSSVTAADTAVYFCARADWDLLHALDIWGQGTLVTVSS
VL: EIVLTQSPSSLSTSVGDRVTITCRASQSIRSHLNWYQQKPGKAPKLLIYGASNLQSGVPSRFSGSGSGTDFTLTISSLQPEDFATYYCQQSYSFPLTFGGGTKLEIK
modifications: WapR-004RAD VH; WapR-004 & WarR-004RAD VL
B1 was tested, and the “bacterial CFU in total eye homogenates compared to R347 control” value [1] was “reduced bacterial colony forming units (CFU) in total eye homogenates”, the “corneal pathology compared to R347 control” value ([1]; graded 48 h after infection) was “significantly less pathology” and the “organ burden in lung, spleen and kidney” value (P. aeruginosa 6294 (O6); 2.5×10^7 CFU 6294, Bs2-/Bs3-V2L2 0.7 mg/kg, V2L2 or W4-RAD 0.5 mg/kg, FIG. 23A) was “no effect on decreasing organ burden”. The “survival effect, in words” value (P. aeruginosa 6294 (O6); 6294, bispecifics 0.28 mg/kg, V2L2 or W4-RAD 0.2 mg/kg, FIG. 24) was “did not affect survival” and the animals survived [2] was “Approximately 90%”.

B2: Psl0337: lead optimized anti-Psl clone; VH SEQ ID NO:295, VL SEQ ID NO:296 (antibody, V domains shown)
VH: B1 VH with E1Q, L5Q, N23T, A25S, H81K, V82L, F94Y, L102H, L103K, L114M
VL: B1 VL with E1D, V3Q, T13A, Q90D, Y92S, F94W, L104V
modifications: Psl0337-Germline VH; Psl0337-Germline VL
B2 was tested, and the “OPK activity of lead optimized anti-Psl clones (basis of selection)” value (“OPK activity … (basis of selection)” for short) [3] was “enhanced OPK activity”.

B3: Psl0225: lead optimized anti-Psl clone; VH SEQ ID NO:290, VL SEQ ID NO:291 (antibody, V domains shown)
VH: QVQLQESGPGLVKPSETLSLTCTVSGGSISPYYWTWIRQPPGKGLELIGYIHSSGYTDYNPSLKSRVTISGDTSKKQFSLKLSSVTAADTAVYYCARAMDIEPHALDIWGQGTMVTVSS
VL: B1 VL with E1D, V3Q, T13A, Y92D, S93D, F94G, P95F, L96P, T97N, L104V
modifications: Psl0225-Germline VH; Psl0225-Germline VL
B3 was tested, and the “OPK activity … (basis of selection)” value [3] was “enhanced OPK activity”.

B4: Psl0588: lead optimized anti-Psl clone; VH SEQ ID NO:292, VL SEQ ID NO:293 (antibody, V domains shown)
VH: B3 VH with M99D, I101P, E102F, H104G, A105Y
VL: B1 VL with E1D, V3Q, T13A, Y92D, S93T, T97K, L104V
modifications: Psl0588-Germline VH
B4 was tested, and the “OPK activity … (basis of selection)” value [3] was “enhanced OPK activity”.

B5: V2L2-GL: V2L2-germlined mAb (antibody, V domains shown)
VH: EVQLLESGGGLVQPGGSLRLSCAASGFTFSSYAMNWVRQAPGKGLEWVSAITISGITAYYTDSVKGRFTISRDNSKNTLYLQMNSLRAEDTAVYYCAKEEFLPGTHYYYGMDVWGQGTTVTVSS
VL: AIQMTQSPSSLSASVGDRVTITCRASQGIRNDLGWYQQKPGKAPKLVIYSASTLQSGVPSRFSGSGSGTDFTLSISSLQPDDFATYYCLQDYNYPWTFGQGTKVEIK
modifications: V2L2-GL VH; V2L2-MD and V2L2-GL VL
notes: V2L2-germlined mAb
For B5, the “prevention of RBC lysis” value [4] was “demonstrated prevention of RBC lysis”.
